Measured values as given in patent publication US7563585B2, “Methods of assaying compounds that modulate IL-4 receptor-mediated IgE synthesis utilizing a thioredoxin-like 32 kDa protein (TXNL)” (Rigel Pharmaceuticals, Inc., priority 2002, dated 2009).

What was measured:
[1] = test system: endogenous α promoter (ST486 cells); test: TAQMAN assay of endogenous germline α promoter transcription in ST486 cells; assay type: cell-based; settings: ST486 cells stimulated with TGF-β 40 ng/ml; average of 3 values; p=0.7797
Method: The assay was similar to that described in the immediately preceding section, except that ST486 cells (ATCC # CRL-1647) engineered to express the tetracycline-regulated transactivator were infected and the infected cells were stimulated with TGF-β (40 ng/ml; Peprotech). The primers and probe, which are specific for the transcription product driven by the ST486 endogenous α promoter, were as follows (the probe was labeled at the 5′-end with Fam and at the 3′-end with Tamra): […]

[2] = biological target: T1, human thioredoxin-like 32 kDa protein (hTXNL) (Homo sapiens, UniProt O43396); test: β-galactosidase yeast two hybrid (YTH) interaction assay; assay type: binding
T1 construct: expressed in transfected cells; prey cDNA from a library of the A5T4 reporter line (derived from BJAB B-cells)
T1 sequence (O43396 1-289): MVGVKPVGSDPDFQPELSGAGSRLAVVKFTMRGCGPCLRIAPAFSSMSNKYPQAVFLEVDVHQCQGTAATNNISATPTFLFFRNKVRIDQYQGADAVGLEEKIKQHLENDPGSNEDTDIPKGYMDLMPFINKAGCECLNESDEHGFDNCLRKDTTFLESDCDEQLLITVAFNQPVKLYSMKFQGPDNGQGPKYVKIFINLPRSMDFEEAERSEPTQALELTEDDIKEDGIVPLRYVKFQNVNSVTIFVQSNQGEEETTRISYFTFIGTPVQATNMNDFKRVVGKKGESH
Method: Potential binding partners for peptide DR15wt were identified in a β-galactosidase yeast two-hybrid (YTH) assay using peptide DR15wt as bait and a cDNA library constructed from the A5T4 reporter cell line as prey. Binding was assessed by β-galactosidase quantification using BetaFluor (Novagen) as a substrate. A negative interaction control (no cDNA fused downstream of the GAL4 activation domain sequence) was also run. A general outline of the YTH assay is illustrated in FIG. 5A. Following clustering, filtering to remove non-specific bait hits (e.g., GFP and BFP), singletons and clusters recognized by 10 or more cDNA baits (based upon historical YTH assays), and prioritization, 10 prey clones were identified as hits.
Potential targets identified in the YTH assay were reconfirmed as generally outlined in FIG. 6. The cDNA clones identified as hits in the YTH assay were purified and rescreened for interaction with the DR15wt (SEQ ID NO:1) peptide in a YTH assay. The hit clones were also screened in a control assay for interaction with the BFP using a vector (pGBKT7) that contained only the BFP and not the DR15 peptide. At this stage, 8 putative target clones remained.
The interaction of DR15wt (SEQ ID NO:1) peptide and its mutants with the clones identified as potential targets for the peptide DR15wt (SEQ ID NO:1) was then quantified in a galactosidase YTH assay. The YTH assay was performed in the manner described above. A general outline of this YTH assay is illustrated in FIG. 5B. For each clone tested, an interaction profile was developed by comparing the β-galactosidase activity of each mutant to that of the wild type peptide as described above.
The interaction of these IOF and ROF mutants with different polypeptides encoded by the putative target clones were quantified using the YTH assay described above. Based on the YTH assay, for each putative target, a subset of the mutants representing each of the above functional categories, when available, were categorized into the following four interaction categories: (1) reduction of interaction (ROI); (2) loss of interaction (LOT); (3) increase of interaction (101); and (4) interactionally neutral (N), by assessing the binding affinity ratio of the mutant peptide and the wild type peptide (β-gal activity of mutant/wild type) to the putative target. For the YTH interaction assay mutants DR15PE (SEQ ID NO:2), DR15QI (SEQ ID NO:3), and DR15YM (SEQ ID NO:4) as well as originally identified DR15wt (SEQ ID NO:1), were used.

[3] = test system: IL-4 induced germline ε transcription (ε promoter reporter in A5T4 cells); test: Re-infection assay in naïve A5T4 cells (BFP− vs BFP+ populations, FACS of GFP); assay type: cell-based, human; settings: A5T4 reporter line
Method: The ability of peptide DR15wt (SEQ ID NO:1) to inhibit germline ε transcription was confirmed in naïve cells. Briefly, Phoenix cells were transfected with a retroviral vector encoding a BFP-DR15wt (SEQ ID NO:1) peptide fusion as described in WO 99/58663 and WO 97/27213. Naïve A5T4 cells were infected with the resultant virions and grown for 3 days. The infected cells were stimulated with IL-4 (60 U/mL) and, after 3 days, the cells were assessed by FACS for BFP and GFP. […] The BFP fluorescence data corresponding to the BFP^+ and BFP^− populations are provided in Panel A. The GFP fluorescence data corresponding to the BFP^+ and BFP^− populations are presented in Panel B. The reporter ratio for this purpose is determined as the geometric mean of the GFP fluorescence of the BFP^− population divided by the geometric mean of the GFP fluorescence of the BFP^+ population. The reporter ratio for the DR15 in this re-infection assay was 1.69.
A collection of DR15 mutants was generated by replacing double amino acid residues in the sequence of DR15wt (SEQ ID NO:1) with a different amino acid, typically an alanine, as described in copending application Ser. No. 10/095,659. The functional profiles for the mutants derived from DR15wt (SEQ ID NO:1) was obtained by constructing and screening for activity in the A5T4 reporter cell line in the manner described above. […]

| Sequence | endogenous α inhibition ratio [1] | binding to hTXNL in yeast two hybrid interaction assay [2] | functional category based on reporter ratio compared to DR15wt [3] |
| --- | --- | --- | --- |
| PERCYMRMPPQSLADAQIYS (peptide generated from a combinatorial library) [DR15wt, 20-mer peptide from a random retroviral library, expressed as BFP-peptide fusion] | 0.98 | found to bind |  |
| PERCYMRMPPQSLADAAAYS (peptide generated from combinatorial library) [DR15QI, dual alanine mutant of DR15wt] |  | found to bind |  |
| AARCYMRMPPQSLADAQIYS (Peptide generated by a combinatorial library) [DR15PE, dual alanine mutant of DR15wt] |  | found to bind | IOF (An increase of function mutant (IOF) shows a >50% increase in reporter ratio) |
| PERCAARMPPQSLADAQIYS (peptide generated from combinatorial library) [DR15YM, dual alanine mutant of DR15wt] |  | found to bind |  |
